Here are results for eight molecules from US20080181886A1, “Polypeptides That Bind Baff And/Or April” (Genentech, Inc., priority 2004, published 2008).

The target of assay [1] is human BAFF (human) (UniProt Q9Y275). The assay can be described thus: shotgun scan, phage display.
The target in assay [2] is Murine APRIL (mouse) (UniProt Q9D777). The assay can be described thus: NNS library, phage display.
Assay [3] addresses human BAFF (human) (UniProt Q9Y275). In words: NNS library, phage display.
The target in assay [4] is Murine APRIL (mouse) (UniProt Q9D777). The assay can be described thus: shotgun scan, phage display.

Chain of human BAFF (human) (Q9Y275 82-285 limits assumed): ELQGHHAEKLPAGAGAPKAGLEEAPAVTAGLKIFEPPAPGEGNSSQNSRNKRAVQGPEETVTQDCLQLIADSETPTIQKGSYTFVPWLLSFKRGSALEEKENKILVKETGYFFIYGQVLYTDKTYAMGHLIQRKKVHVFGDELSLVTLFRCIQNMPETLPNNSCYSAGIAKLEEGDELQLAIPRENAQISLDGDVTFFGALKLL
Chain of Murine APRIL (mouse) (Q9D777 105-241 limits assumed): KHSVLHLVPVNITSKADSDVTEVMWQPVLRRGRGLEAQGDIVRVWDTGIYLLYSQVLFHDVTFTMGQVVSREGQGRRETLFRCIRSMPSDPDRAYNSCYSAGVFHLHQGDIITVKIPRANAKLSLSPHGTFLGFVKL

SLSCRKEQGKFYDHLLRDCISCASICGPHPKQCAYFCENKLR (receptor) [TACI_d2 Q95P]: in assay [1], the F (BAFF) was > 54.
In assay [2], SLSCRKEQGKFDDHLLRDCISCASICGQHPKQCAYFCENKLR (receptor) [TACI_d2 Y79D] had a F' APRIL of 0. Moreover, the F' BAFF in assay [3] came to 0. Besides, the F (APRIL) in assay [4] was > 8.2. For the same molecule, the F (BAFF) in assay [1] is > 9.5.
As for SLSCRKEQGKFYDHLLPDCISCASICGQHPKQCAYFCENKLR (receptor) [TACI_d2 R84P], the F' BAFF in assay [3] stood at 0. The F (BAFF) in assay [1] was > 52.
The like results for SLSCRKEQGKFSDHLLRDCISCASICGQHPKQCAYFCENKLR (receptor) [TACI_d2 Y79S] were, in that order, 0 and > 36.
SLSCRKEQGKFYDHLPRDCISCASICGQHPKQCAYFCENKLR (receptor) [TACI_d2 L83P] gave a F (BAFF) in assay [1] of 15.
On the same count and under the same terms, in the case of SLSCRKEQGKFYDHLLRDCISCASICGQDPKQCAYFCENKLR (receptor) [TACI_d2 H96D] it was > 29.
The molecule SLSCRKEQGKFYDHLLRDCISCASICGQPPKQCAYFCENKLR (receptor) [TACI_d2 H96P] yielded a F (APRIL) in assay [4] of 48. The F (BAFF) in assay [1] was determined as 20.
With SLSCRKEQGKFYDHLLGDCISCASICGQHPKQCAYFCENKLR (receptor) [TACI_d2 R84G], the F' BAFF in assay [3] came out at 0. Further, the F (BAFF) in assay [1] was determined as 13.
